Laboratory results reported in US20230312724A1 (KADMON, published 2023).

B1: 39A11/57G8 (antibody, human IgG1, V domains shown)
VH: EVQLLESGGGLVQPGGSLRLSCAASGFTFSSYGMHWVRQAPGKGLEWVASISSSSGYIYYADSVKGRFTISRDNSKNTLYLQMNSLRAEDTAVYYCARASSGMDVWGQGTTVTVSS
VL: DIQMTQSPSSLSASVGDRVTITCRASQSIRSYLNWYQQKPGKAPKLLIYYASSLQSGVPSRFSGSGSGTDFTLTISSLQPEDFATYYCQQYYSTPLTFGQGTKVEIK
notes: 39A11 VH with 57G8 VL
B2: Control antibody 1 (antibody 20502 described in US20190085080A1) (antibody, V domains shown)
VH: QLQLQESGPGLVKPSETLSLTCTVSGGSIKSGSYYWGWIRQPPGKGLEWIGNIYYSGSTYYNPSLRSRVTISVDTSKNQFSLKLSSVTAADTAVYYCAREGSYPNQFDPWGQGTLVTVSS
VL: EIVMTQSPATLSVSPGERATLSCRASQSVSSNLAWYQQKPGQAPRLLIYGASTRATGIPARFSGSGSGTEFTLTISSLQSEDFAVYYCQQYHSFPFTFGGGTKVEIK
notes: also called (+) control Ab1; (+) Ab1

Columns and labels:
human B7-H4-Fc [1] = target: T1, human B7-H4-Fc (human); assay: SPR (Biacore)
T1 construct: also called hB7-H4-Fc; hB7-H4 Fc
Outline: (§1)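 Ligands (human B7-H4-Fc, human B7-H4-his, mouse B7-H4-Fc) were amine-coupled to CM5 chips at 50-100 RU. Analyte was injected at 100 nM to 0.1 nM in HBS-EP, pH 7.4, at 25 °C, with 180 s association and 1000 or 1200 s dissociation. Kinetics were fitted to a 1:1 Langmuir model.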

human B7-H4-his [2] = target: T2, human B7-H4-his (human, UniProt Q7Z7D3 25-259); assay: SPR (Biacore)
T2 construct: also called hB7-H4-his; hB7-H4 his; not shown: his tag
T2 sequence: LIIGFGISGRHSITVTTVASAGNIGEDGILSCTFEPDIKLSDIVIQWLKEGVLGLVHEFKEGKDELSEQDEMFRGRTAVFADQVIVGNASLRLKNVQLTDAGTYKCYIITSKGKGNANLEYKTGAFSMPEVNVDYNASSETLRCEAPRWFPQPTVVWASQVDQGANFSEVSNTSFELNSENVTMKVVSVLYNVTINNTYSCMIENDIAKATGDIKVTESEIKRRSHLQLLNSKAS
Outline: as §1

mouse B7-H4-Fc [3] = target: T3, mouse B7-H4-Fc (mouse; human); assay: SPR (Biacore)
T3 construct: also called mB7-H4-Fc; mB7-H4-hFc
Outline: as §1

[4] = target: T4, hB7-H4 (soluble human B7-H4, construct not named) (human, UniProt Q7Z7D3 25-259, limits assumed); assay: ELISA, hB7-H4
T4 construct: also called soluble hB7-H4
T4 sequence: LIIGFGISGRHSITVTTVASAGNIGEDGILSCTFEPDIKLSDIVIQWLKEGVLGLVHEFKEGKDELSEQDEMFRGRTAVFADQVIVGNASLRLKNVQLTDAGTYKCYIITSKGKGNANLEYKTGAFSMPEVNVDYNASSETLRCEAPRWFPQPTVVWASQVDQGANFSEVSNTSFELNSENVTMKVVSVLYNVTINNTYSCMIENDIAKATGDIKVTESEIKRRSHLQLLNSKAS
Outline: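 Each antibody, diluted in series, was incubated 1-1.5 h at RT on milk-blocked wells coated with ~1-2 μg/ml human or mouse B7-H4-Fc (or his-tagged) at 4° C overnight. An HRP anti-human Fab with TMB gave the OD450 signal.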

[5] = target: T4, hB7-H4 (soluble human B7-H4, construct …); assay: SPR (Biacore)
[6] = target: T5, mB7-H4 (soluble mouse B7-H4, construct not named) (mouse, UniProt Q7TSP5 25-257, limits assumed); assay: ELISA, mB7-H4
T5 sequence: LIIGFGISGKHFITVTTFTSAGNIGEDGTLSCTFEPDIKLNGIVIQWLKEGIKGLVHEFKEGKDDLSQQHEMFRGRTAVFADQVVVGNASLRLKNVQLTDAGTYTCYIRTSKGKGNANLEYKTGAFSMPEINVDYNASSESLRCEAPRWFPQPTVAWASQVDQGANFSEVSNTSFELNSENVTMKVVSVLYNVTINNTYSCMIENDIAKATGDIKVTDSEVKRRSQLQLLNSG
Method: (§2) About 1-2 μg/ml of human or mouse B7-H4-Fc (or his-tagged) was immobilized on ELISA plates (Immuno 2HB, Thermo scientific, cat #3455) at 4° C. overnight. After blocking the plates with 3% PBS+milk, serial diluted antibodies were added to the blocked plates and incubated at RT for 1-1.5 h. After washing the plates with PBS-T (0.05%), horse radish peroxidase (HRP)-conjugated antibody targeting the hFab was added to the plate. Signals were developed by adding 3,3′,5,5′-Tetramethylbenzidine (TMB (followed 1N of H₂SO₄ to stop the reaction. The OD at 450 nm was read by ELISA plate reader (Infinite M1000 from TECAN). GraphPad from Prism was used to plot OD450 vs. antibody concentration curve and to calculate the EC50 values.

[7] = target: T6, mouse B7-H4 expressed on cells (mouse, UniProt Q7TSP5 25-257); assay: flow cytometry, mB7-H4/CT26 cells
T6 construct: also called cellular mB7-H4; mB7-H4/CT26
T6 sequence: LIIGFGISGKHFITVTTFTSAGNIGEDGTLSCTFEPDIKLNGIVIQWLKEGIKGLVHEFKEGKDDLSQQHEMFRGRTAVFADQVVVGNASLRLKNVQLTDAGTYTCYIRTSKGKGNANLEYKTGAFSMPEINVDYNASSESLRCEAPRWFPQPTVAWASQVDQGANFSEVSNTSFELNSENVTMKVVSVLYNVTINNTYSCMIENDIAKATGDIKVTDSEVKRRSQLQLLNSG

human B7-H4-Fc [8] = target: T1, human B7-H4-Fc; assay: ELISA on coated hB7-H4-Fc
Method: as §2

mouse B7-H4-Fc [9] = target: T3, mouse B7-H4-Fc; assay: ELISA on coated mB7-H4-Fc
Method: as §2

human B7-H4-his [10] = target: T2, human B7-H4-his; assay: ELISA on coated hB7-H4-his
Method: as §2

mouse B7-H4-his = target: T7, mouse B7-H4-his (mouse, UniProt Q7TSP5 25-257); assay: ELISA on coated mB7-H4-his
T7 construct: also called mB7-H4-his; mB7-H4-His; not shown: his tag
T7 sequence: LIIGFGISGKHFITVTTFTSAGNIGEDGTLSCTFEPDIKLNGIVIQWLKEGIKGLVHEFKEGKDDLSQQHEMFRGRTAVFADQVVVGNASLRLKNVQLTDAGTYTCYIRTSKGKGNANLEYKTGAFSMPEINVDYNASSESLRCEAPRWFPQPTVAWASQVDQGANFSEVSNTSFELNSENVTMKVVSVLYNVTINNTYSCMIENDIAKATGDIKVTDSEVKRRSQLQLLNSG
Method: as §2

[11] = target: T8, IgV domain of mouse B7-H4-Fc (mouse; human); assay: ELISA, coated mB7-H4 IgV domain
T8 construct: also called mB7-H4 IgV domain

[12] = target: T9, IgC domain of human B7-H4-Fc (human); assay: ELISA, coated hB7-H4 IgC domain
T9 construct: also called hB7-H4 IgC domain

[13] = target: T10, IgC domain of mouse B7-H4-Fc (mouse; human); assay: ELISA, coated mB7-H4 IgC domain
T10 construct: also called mB7-H4 IgC domain

[14] = target: T11, IgV domain of human B7-H4-Fc (human); assay: ELISA on coated IgV domain of hB7-H4
T11 construct: also called hB7-H4 IgV domain

[15] = target: T8, IgV domain of mouse B7-H4-Fc; assay: ELISA on coated IgV domain of mB7-H4
[16] = target: T5, mB7-H4 (soluble mouse B7-H4, construct …); assay: SPR (Biacore); values equal to Table 11

T8 sequence (chain, as listed by the source): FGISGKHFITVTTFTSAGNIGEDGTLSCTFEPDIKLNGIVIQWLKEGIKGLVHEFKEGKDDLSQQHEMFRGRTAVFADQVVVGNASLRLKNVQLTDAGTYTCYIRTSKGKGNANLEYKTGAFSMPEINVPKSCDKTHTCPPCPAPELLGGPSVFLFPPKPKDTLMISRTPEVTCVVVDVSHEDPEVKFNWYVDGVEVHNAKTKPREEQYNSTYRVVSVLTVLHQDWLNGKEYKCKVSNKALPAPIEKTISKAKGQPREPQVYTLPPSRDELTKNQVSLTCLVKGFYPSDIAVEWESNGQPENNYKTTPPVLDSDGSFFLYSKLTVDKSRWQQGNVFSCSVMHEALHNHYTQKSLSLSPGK
T3 sequence (chain, as listed by the source): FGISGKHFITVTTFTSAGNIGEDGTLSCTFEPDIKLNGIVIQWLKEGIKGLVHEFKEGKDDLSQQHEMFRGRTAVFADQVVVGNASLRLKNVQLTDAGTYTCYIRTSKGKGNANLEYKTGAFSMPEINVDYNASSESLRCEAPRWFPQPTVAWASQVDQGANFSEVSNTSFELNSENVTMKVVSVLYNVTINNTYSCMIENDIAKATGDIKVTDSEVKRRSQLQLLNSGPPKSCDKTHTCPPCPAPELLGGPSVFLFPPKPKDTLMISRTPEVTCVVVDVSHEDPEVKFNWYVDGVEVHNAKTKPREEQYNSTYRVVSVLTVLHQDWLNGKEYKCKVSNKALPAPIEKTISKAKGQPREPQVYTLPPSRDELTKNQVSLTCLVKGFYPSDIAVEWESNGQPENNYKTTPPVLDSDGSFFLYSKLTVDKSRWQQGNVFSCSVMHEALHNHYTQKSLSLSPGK
T1 sequence (chain, as listed by the source): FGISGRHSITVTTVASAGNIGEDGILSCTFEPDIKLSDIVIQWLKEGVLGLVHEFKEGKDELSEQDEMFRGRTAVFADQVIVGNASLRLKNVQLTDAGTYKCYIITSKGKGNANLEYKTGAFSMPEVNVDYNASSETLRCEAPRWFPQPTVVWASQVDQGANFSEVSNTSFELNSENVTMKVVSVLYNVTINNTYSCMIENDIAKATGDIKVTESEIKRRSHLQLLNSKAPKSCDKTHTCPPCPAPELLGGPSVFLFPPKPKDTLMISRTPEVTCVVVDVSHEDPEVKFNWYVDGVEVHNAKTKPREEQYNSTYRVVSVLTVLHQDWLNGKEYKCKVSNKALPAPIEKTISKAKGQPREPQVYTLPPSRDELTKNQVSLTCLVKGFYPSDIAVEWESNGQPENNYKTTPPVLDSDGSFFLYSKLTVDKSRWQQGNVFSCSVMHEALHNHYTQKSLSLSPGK
T9 sequence (chain, as listed by the source): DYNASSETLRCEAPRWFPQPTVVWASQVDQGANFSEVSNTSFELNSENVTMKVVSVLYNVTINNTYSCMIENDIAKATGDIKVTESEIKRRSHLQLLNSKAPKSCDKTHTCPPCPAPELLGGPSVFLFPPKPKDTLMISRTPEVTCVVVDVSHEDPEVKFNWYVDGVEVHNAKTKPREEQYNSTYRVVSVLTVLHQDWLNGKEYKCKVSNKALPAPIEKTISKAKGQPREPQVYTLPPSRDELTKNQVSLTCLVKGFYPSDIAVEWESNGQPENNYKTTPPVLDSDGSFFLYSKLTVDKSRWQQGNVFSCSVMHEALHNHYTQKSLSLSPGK
T11 sequence (chain, as listed by the source): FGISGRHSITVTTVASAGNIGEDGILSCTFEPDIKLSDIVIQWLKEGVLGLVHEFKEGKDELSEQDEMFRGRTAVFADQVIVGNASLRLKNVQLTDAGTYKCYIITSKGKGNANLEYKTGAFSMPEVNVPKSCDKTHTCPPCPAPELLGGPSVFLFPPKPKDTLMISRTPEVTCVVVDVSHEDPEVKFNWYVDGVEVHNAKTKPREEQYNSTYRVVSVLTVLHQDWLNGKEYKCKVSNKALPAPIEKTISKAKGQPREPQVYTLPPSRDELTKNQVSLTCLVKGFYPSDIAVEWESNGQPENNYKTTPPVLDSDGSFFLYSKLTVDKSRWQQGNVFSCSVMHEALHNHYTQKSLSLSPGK
T10 sequence (chain, as listed by the source): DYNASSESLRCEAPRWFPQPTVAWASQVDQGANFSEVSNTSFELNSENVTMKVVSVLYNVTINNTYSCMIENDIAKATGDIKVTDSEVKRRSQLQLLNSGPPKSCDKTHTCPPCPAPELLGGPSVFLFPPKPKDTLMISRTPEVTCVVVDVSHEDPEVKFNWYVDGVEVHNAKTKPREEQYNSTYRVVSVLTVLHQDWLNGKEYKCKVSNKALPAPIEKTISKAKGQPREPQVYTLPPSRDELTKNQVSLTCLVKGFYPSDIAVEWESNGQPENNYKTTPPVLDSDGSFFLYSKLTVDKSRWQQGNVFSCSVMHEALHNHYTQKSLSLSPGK

Binder	Kd (human B7-H4-Fc [1])	Kd (human B7-H4-his [2])	Kd (mouse B7-H4-Fc [3])	EC50 [4]	Kd [5]	EC50 [6]	EC50 [7]	EC50 (read off the curve) (human B7-H4-Fc [8])	EC50 (read off the curve) (mouse B7-H4-Fc [9])	EC50 (read off the curve) (human B7-H4-his [10])	EC50 (read off the curve) (mouse B7-H4-his)	EC50 (read off the curve) [11]	binding result [12]	binding result [13]	EC50 (read off the curve) [14]	EC50 (read off the curve) [15]	Kd [16]
B1	0.107 nM	0.0355 nM	0.0518 nM	0.06 nM	0.152 nM	0.051 nM	7.82 nM	~0.08 nM	~0.08 nM	~0.1 nM	~0.1 nM	~0.2 nM	no binding (tested: log 1 nM (10 nM))	no binding (tested: log 1 nM (10 nM))	~0.1 nM	~0.07 nM	0.152 nM
B2	0.45 nM	0.11 nM	0.509 nM	0.106 nM	0.499 nM	0.139 nM	2.06 nM	~0.1 nM	~0.1 nM	~0.2 nM	~0.2 nM	~0.3 nM	no binding (tested: log 1 nM (10 nM))	no binding (tested: log 1 nM (10 nM))	~0.2 nM	~0.4 nM	0.499 nM
